Test results from patent publication US20190038721A1 (Novo Nordisk, published 2019).
Starred links: 1 amine or outer side, 2 acyl side, 3 side chain; linkers in the order of their positions; H or OH if unused. Non-standard residues stand in square brackets, D forms with d. Groups on a side chain read outwards from the residue. No end group written: not given here. *: point of attachment. 2‑(bis(3-aminopropyl)amino)acetyl = branch point, each 3-aminopropyl arm carries one of the two bracketed chains; 4‑(aminomethyl)cyclohexanecarbonyl = 4-(aminomethyl)cyclohexanecarbonyl linker unit; Undecanoyl(11-OPh(4-COOH)) = O=C(O)c1ccc(OCCCCCCCCCCC(=O)*)cc1; Decanoyl(10-(4-HOOC-PhO)) = O=C(O)c1ccc(OCCCCCCCCCC(=O)*)cc1; Decanoyl(10-O(3-COOH-Ph)) = O=C(O)c1cccc(OCCCCCCCCCC(=O)*)c1; C20 diacid = O=C(O)CCCCCCCCCCCCCCCCCCC(=O)*; γGlu = O=C(O)[C@H](CCC(=O)[*:2])N[*:1]; C14 diacid = O=C(O)CCCCCCCCCCCCC(=O)*; Palmitoyl = CCCCCCCCCCCCCCCC(=O)*; AEEA = NCCOCCOCC(=O)O; Aib = CC(C)(N)C(=O)O

Experiments:
human GLP-1 receptor [1] = molecular target: T1, human GLP-1 receptor (human, UniProt P43220 24-463); test: competitive binding (SPA), displacement of 125I-GLP-1(7-36)NH2 from membranes with human GLP-1 receptor, high HSA (2.0% w/v)
T1 construct: whole, on cells
Protocol: (§1) 1. For the receptor binding assay in the presence of low HSA (0.005% (w/v)) 50 μl of the assay buffer was added to each well of an assay plate. Assay continued with step 3. 2. For the receptor binding assay in the presence of high HSA (2% (w/v)) 50 μl of the 8% (w/v) albumin stock was added to each well of an assay plate. Assay continued with step 3. 3. […] 4. Cell membrane aliquots were thawed and diluted to their working concentration. Fifty μl were added to each well in the assay plate. 5. WGA SPA beads were suspended in assay buffer at 20 mg/ml. The suspension was diluted to 10 mg/ml in assay buffer just prior to addition to the assay plate. Fifty μl were added to each well in the assay plate. 6. […] A 25 μl aliquot was reserved for measuring total counts/well. 7. The assay plate was incubated for 2 h at 30° C. 8. The assay plate was centrifuged for 10 min. 9. The assay plate was read in a Packard TopCount NXT instrument.
(§2) Individual replicates were analysed using non-linear regression in GraphPad Prism.

human GLP-1 receptor [2] = molecular target: T1, human GLP-1 receptor; test: cell-based or functional assay
human GLP-1 receptor [3] = molecular target: T1, human GLP-1 receptor; test: competitive binding (SPA), displacement of 125I-GLP-1(7-36)NH2 from membranes with human GLP-1 receptor, low HSA
Protocol: as §1, §2

| Binder | IC50 (human GLP-1 receptor [1]) | EC50 (pM), in vitro potency, CRE luciferase reporter gene assay in BHK cells (human GLP-1 receptor [2]) | IC50 (human GLP-1 receptor [3]) |
| --- | --- | --- | --- |
| HWEGTFTSDVSSYLEEQAAREFIAWLVRGRGK([AEEA-AEEA-γGlu-4‑(aminomethyl)cyclohexanecarbonyl-C20 diacid])GGSK([AEEA-AEEA-γGlu-4‑(aminomethyl)cyclohexanecarbonyl-C20 diacid]) | 305 nM | 70.5 pM | – |
| H[Aib]EGTFTSDVSSYLEEQAAREFIAWLVRGRGKGGSK (also: the two extension Lys residues acylated as in the compound) [Comparative Example 9A (Example 3 of WO 2015/000942)] | 235 nM | 41.3 pM | 1.04 nM |
| HWEGTFTSDVSSYLEGQAAK([AEEA-AEEA-γGlu-Decanoyl(10-(4-HOOC-PhO))])EFIAWLVRGRK([AEEA-AEEA-γGlu-Decanoyl(10-(4-HOOC-PhO))]) | 771 nM | 30 pM | 6.23 nM |
| HWEGTFTSDVSSYLEGQAAK([γGlu-Palmitoyl])EFIAWLVRGRG [N{Epsilon-26}-[(4S)-4-carboxy-4-(hexadecanoylamino)butanoyl]-[Trp8,Arg34]-GLP-1-(7-37)-peptide] | – | 21 pM | – |
| HWEGTFTSDVSSYLEEQAAREFIAWLVRGK([AEEA-AEEA-AEEA-AEEA-γGlu-C14 diacid])K([AEEA-AEEA-AEEA-AEEA-γGlu-C14 diacid]) | – | – | 0.55 nM |
| HWEGTFTSDVSSYLEEQAAREFIAWLVRGK([AEEA-AEEA-γGlu-Decanoyl(10-O(3-COOH-Ph))])K([AEEA-AEEA-γGlu-Decanoyl(10-O(3-COOH-Ph))]) | – | – | 0.405 nM |
| HWEGTFTSDVSSYLEEQAAREFIAWLVRGK([AEEA-AEEA-γGlu-Undecanoyl(11-OPh(4-COOH))])K([AEEA-AEEA-γGlu-Undecanoyl(11-OPh(4-COOH))]) | – | – | 0.535 nM |
| HWEGTFTSDVSSYLEEQAAREFIAWLVRGRK([AEEA-AEEA-2‑(bis(3-aminopropyl)amino)acetyl-AEEA-AEEA-AEEA-AEEA-γGlu-4‑(aminomethyl)cyclohexanecarbonyl-C20 diacid)+(AEEA-AEEA-AEEA-AEEA-γGlu-4‑(aminomethyl)cyclohexanecarbonyl-C20 diacid]) (also called 13) [N{Epsilon-37}-[2-[2-[2-[[2-[2-[2-[[2-[bis[3-[[2-[2-[2-[[2-[2-[2-[[2-[2-[2-[[2-[2-[2-[[(4 …] | 71.6 nM | 32.1 pM | – |
| HWEGTFTSDVSSYLEEQAAREFIAWLVRGRK([AEEA-AEEA-2,6‑diaminohexanoyl-AEEA-AEEA-AEEA-AEEA-γGlu-4‑(aminomethyl)cyclohexanecarbonyl-C20 diacid)+(AEEA-AEEA-AEEA-AEEA-γGlu-4‑(aminomethyl)cyclohexanecarbonyl-C20 diacid]) (the claim prints (2S)-2,6-bis; also called 12) | 51.8 nM | 62.9 pM | – |
| HWEGTFTSDVSSYLEEQAAREFIAWLVRGRK([Lys-AEEA-AEEA-AEEA-AEEA-AEEA-AEEA-γGlu-4‑(aminomethyl)cyclohexanecarbonyl-C20 diacid)+(AEEA-AEEA-AEEA-AEEA-AEEA-AEEA-γGlu-4‑(aminomethyl)cyclohexanecarbonyl-C20 diacid]) (also called 10) | 123 nM | 31.2 pM | – |
| HGEGTFTSDVSSYLEGQAAKEFIAWLVKGRG [[Gly8]-GLP-1-(7-37)-peptide] | 0.62 nM | 32 pM | 2.64 nM |
| HPEGTFTSDVSSYLEEQAAREFIAWLVKGRG [[Pro8,Glu22,Arg26]-GLP-1-(7-37)-peptide] | 0.035 nM | 0.57 pM | 0.075 nM |
| HWEGTFTSDVSSYLEGQAAKEFIAWLVKGRG (also called 8W GLP-1(7-37)) [[Trp8]-GLP-1-(7-37)-peptide] | 0.208 nM | 12 pM | 0.67 nM |
| H[Aib]EGTFTSDVSSYLEEQAAREFIAWLVRGRPK (also: Lys32 acylated as, structure not given here) [Comparative Example 11A (Example 10 of WO 2016/083499)] | 34.4 nM | 12.5 pM | 0.401 nM |
| HWEGTFTSDVSSYLEEQAARK([AEEA-AEEA-γGlu-Decanoyl(10-(4-HOOC-PhO))])FIEWLVRGK([AEEA-AEEA-γGlu-Decanoyl(10-(4-HOOC-PhO))])GEG | 84.9 nM | 2.7 pM | 1.03 nM |
| H[Aib]EGTFTSDVSSYLEEQAARKFIEWLVRGKGEG (not fully specified (residues 21, 30); also: Lys21 and Lys30 acylated as, structure not given here) [Comparative Example 3A (Example 31 of WO 2012/140117)] | 134 nM | 0.53 pM | 0.26 nM |
